Results: a protein production outcome set (Wang et al. 2014)

Assay: label from the status in PepcDB records
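Further: failed if final PepcDB status was selected cloned or expressed and not failed if soluble or beyond.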

MGALLPRGQASRPRTRHGRSPQNDRRQEARDVTGRHLAMVQRPGKMARWVLCCECLRRPMDLTLRLATALLTASLLLPLRPAQAQLAGHGGPVRAIAVSSDGKTVLSGSFDTAAIRWSLATESAEQVLRFHSGAVNAAAFLGDGRMATAGADGQIAIWTAGGLQPDQVLEGHTGPIVGLVVSPDTSKLASASWDHTVRISSLSDGGTRVLQGHSQSVNGVAFAPDGKSLVSVGYDLTVRIWPLAGGSPEIVVMPAPLNAVAISPDGEIVTGAADGKLRMMTADGKENGEVMAGARPIVALAISQDGALIATGAIDGTVAIVDRKARSVMRTLAGLGAPVWSVAFLPDGATLLTGGADGKIRRWNALTGAAIGSNVLGTPADPLAAYVGDHGAEMFRACVACHTLSENEVQRAGPTLAGLFGRKIASLPGYRFTDALKAMDIVWTPETVSKLFEIGPNAYTPGTKMPEQRIGSAEDRRALTDFLARATSK
protein production: failed

MGALRGRWAEEEALRFLLGKGYRLLWRNRRTPFGEVDLFMEKDGVYVVVEVKQRASARFGAPLEAITPGKVRRLLQSARFLLGRDDLPVRLEAVLVHGTPKDFRLEHLVLEL
protein production: failed

MGDPFGGRFGGFRGSLFGGRDPFDDPFFSRPFEDLLEPSNTFSSGASFSNAHKNNGGRGLTIEELPSDEEVEERKDIGIDDQEHASSVNKPSVEHPEDDSDAERKIQNVNQRSDFNRREGTQSRANTFRHHISKVTYGGIHGAYYTSTRTRRKDGDGMVVEESKEADKTTGEATHRISRGINDKVIDYTVDGHSVTRKLNSSGGVESTQTLHNLDEGPAESTQPYHNLKFFERKLAGF
protein production: failed

MGDVVEMTSELGFKYSILASGSTGNSFYLETPEKKILVDAGLSGKKITSLLAEIDRDPSDLDAILVTHEHKDHIHGVGVLARKYGMDIYANEKTWQIMDSKNMLGKVDNSQKHIFSRGKLLTFGDIDIESFGVSHDAINPQFYRFMKDGKSFVMLTDTGYVSDRMAGLIENADGYLIESNHDIEILRAGSYPWSTKQRILSDQGHLCNEDGADAMIRTIGNKTKKIYLGHLSKENNIKELAYMTMENQLARADFGVGTDFKIFVTSPDTATPLTDILEHHHHHH
protein production: not failed

MGDWSKLPEELLGLIALRLYSVIELIRFRSICKSWRSSASGVNKNHSLSSPLIYFKPLQIILARAQANGQILSKYHGTVLSRATFFRVTLASSPDQGWLIKSDTDLKYRNFHLLNCLSRKALGRSRKLISLSEFIVSEIQESYAVVGRRTRETASEFKRVFLVRVQGGDHRVLVIGIDGKIRFWKGGIWNGIKKQVAQFSDFVLDEGLTYAVDTKGIMWWISSAYDIIRYGTKLHENITNGSCGEKRFVRCRGELYIVDRLIDENLLKRKADSYDDNAIVHFRNADYTNADLWEDGNGNDDFFAAQAHRFIHVLHDNLGNVSCKPFERDPPKTIGFKVYKNDEELLKWVEVKSLGDKAIVIATDACFSVSAHEFYGCLPNSIYFTDKKEEEVKVFKLDDGSITTMSESEQSCFQMFVPSFL
protein production: not failed

MGEDRRSLRVDYDDNFLRNNICSLKVSFIKQQGGAEGVKRLYADLGLALVALIWGSTFPVVKIALDSMSPFAFNTVRFFIACLFFLPFLKGWDFKDGFKIGIASFLGYTFQTVGLDYTTATNAGFITSTYVVLAPIISWLVYKDVFDKRDVSGVLLAFVGFYFLSGYSGFNIGDILMLFCALFFGAEIAMISHYSRLSNPTMLAFWQSFAIFILSAPFAVFTTTKFEINTTVILCLLITAFFATFVAKMLQNWLQSYTKSSDAAVILSLEGVFAHLFSVAVLAEILTPVQYFGAFLILLAVIIVSLRV
protein production: failed

MGEEAALDSFVKLEETLGEDEPCTARIIAPSSRAVLQSPTPPLPLKPHFLTNFPKYWSRPYLQAVPLHCQWERIPELVKQLSAKLIANDDMAELLLGESKLEQHLKEKPLRQGASPRGPRPQLTEVRKHLTAALDRGNLKSEFLQESNLVMAKLNYVEGDYKEALNIYARVGLDDLPLMAVPPYRLRMIAEAYATKGLCLEKLPVSSSTSNLHVDREQDVITCYEKAGDIALLYLQEIERVILTNIQNRSPKPGPAPHDQELGFFLETGLQRAHVLYFKNGNLTRGVGRFRELLRAVETRTTQNLRMTIARQLAEILLRGMCEQSYWNPLEEPPCQSPLDDPLRKGANTKTYTLPRRARVYSGENIFCPQENTEEALLLLLISESMANRDAVLSRIPEHKSDRLISLQSASVVYDLLTIALGRRGQYEMLSECLERAMKFAFEEFHLWYQFALSLMAAGKSARAVKVLKECIRLKPDDATIPLLAAKLCVGSLHWLEEAEKFAKTVVDVGEKTSEFKAKGYLALGLTYSLQATDASLRGMQEVLQRKALLALQRAHSLSPTDHQAAFYLALQLAISRQIPEALGYVRQALQLQGDDANSLHLLALLLSAQKHHHDALNIIDMALSEYPENFILLFSKVKLESLCRGPDEALLTCKHMLQIWKSCYNLTNPSDSGRGSSLLDRTIADRRQLNTITLPDFSDPETGSVHATSVAASRVEQALSEVASSLQSSAPKQGPLHPWMTLAQIWLHAAEVYIGIGKPAEATACTQEAANLFPMSHNVLYMRGQVAELRGNFDEARRWYEEALSISPTHVKSMQRLALVLHQLGRYSLAEKILRDAVQVNSTAHEVWNGLGEVLQAQGNDAAATECFLTALELEASSPAVPFTVIPRVL
protein production: failed

MGEEEAVAEENGGLKVESGEQKSSWPTMRFDVSPYRTHHFSKQFRTARNPNNFLKGLKWSPDGSCFLASSEDNTLSLFHLPQDGGDSNGYGVPVPEEDSYGASLLVNEGESVYDFCWYPYMSVSDPLTCVFATSTRDHPIHLWDSTSGELRCTYRAYDAMDEITAAFSVGFNPDGTKIFAGYNSSIRVFDLHRPGRDFRQYSTLQKNKEGQAGILSTLAFSPTNSGMLAVGSYGQTTGIYREDNMELLYVLHGQEGGVTHVQFSKDGNYLYTGGRKDPYILCWDIRKSVEIVYKLYRATENTNQRVFFDIEPCGRHLGTGGQDGLVHMYDLQTGNWVSGYQAASDTVNAFSFHPYLPMAATSSGHRRFAIPDDDDGEDKNELQLKADENCVSLWSFYVEDNTYDENNGVASESHLQNVTEEIVLT
protein production: failed

MGEGGQRATPSVTKIVGGEMAARVRAFDWSKTPLGPREDWSPALRLATDIVLASNFPMALRWGPELVLIYNDGYAPALHERHPSALGQSFYDTTPEFQAALRELHQDILTGTSGGFAFERLPLKVLKNGVLEAAYFTVNYSPVPDETAPNGIGGVLVAAVEISQSVKAEQTLRATQERYQ
protein production: failed

MGELIYGEVKKQTKDGFIIDLGDNAEAYLAREEMIAKEILRPKQRMNAILYSVNREGRGAQLLLSRARPEMLMALMKKEIPLEHHHHHH
protein production: failed

MGENVLICLCGSVNSINISHYIIELKSKFDEVNVIASTNGRKFINGEILKQFCDNYYDEFEDPFLNHVDIANKHDKIIILPATSNTINKIANGICDNLLLTICHTAFEKLSIFPNMNLRMWENPVTQNNIRLLKDYGVSIYPANISESYELASKTFKKNVVAPEPYKVLEFI
protein production: not failed

MGERGVEMRLRIRFESAECEVELYEEWAPETVRAIADALPIKSTANRWGDEIYFTTQVAVEKEENSKDVVELGDVAYWIPGKAICLFFGKTPISDDKIRPASAVNVIGRIVNSMEGLKGVADGESVVVERA
protein production: not failed

MGERIALATREGAPLAAYHAPPLEARRGGIVMLHAIWGVTPHLRQLSDSLAEQGYEVMLPSLMDAADAAFPVEDTTPSILDARMAMGERTGWGASTLPRVQACIDALNGPVYAMGFCYGGTTAWLAACRCEGLSAVSAFYGGDIAAYRDETPKVPTILHFGKTDTMIPLSAVDAVRDRHPDLPVYLYDAGHAFVAPSGHHPDSARLALLRTLQLFQR
protein production: failed

MGESGLTNEIDELHEEVTAVSAPGVKPPAQAGRRNIWLKVLISATAFYILLLVALLVTGNPNLFPSLVMVGNFTVPVAYVAFLYERKNFSRLKMPIVSLAFLYGGLVGIIATSFIGPLFITQFNPGDILAVGLVEEFAKILGVVVIARRRRHVLEMDGLILGAAVGMGFAALESTGYAFTAFLISNGSISAVLEVTLFRGLLAPLGHGTWTAILASVLFRESRDCCFRVNLRVIGAYLLVSILHAMWNGLSLVLAPFTGLGLGAIITWALVGFIGLYVLWRRWREAVRLKPVLLPERENV
protein production: failed

MGETVVRDAVTIGKPAEQLYAVWRDLPGLPLLMTHLRSVEVLDDKRSRWTVEAPAPLGTVSWEAELTADEPGKRIAWRSLPGARIENSGEVLFRPAPGARGTEVVVRLTYRPPGGSAGAVIARMFNQEPSQQLRDDLMRFKREQELGLEHHHHHH
protein production: not failed

MGFEVRRRLSVADTVTLFNAVVGFVAGAIAFTDPHLAARLILLAVIADAIDGIVARNGDSSAVGPLLDSVTDVVSFGATPSLFLYVLLTDAYGGIESAHPAVFVGLALLASAYVVCSIVRTAFYSTYFDSPDERPGMPNTLGSIIIATAYLSGITNPLVLSVGALGLSLAMIAPFDYPKPGPKHAVPMGVVQAVAVVAPAALFRAGPRAMLAIALLFFALGPWFYPGE
protein production: failed

MGFKCGIVGLPNVGKSTLFNALTKAGIEAANFPFCTIEPNTGVVPMPDPRLDQLAEIVKPQRTLPTTMEFVDIAGLVKGASKGEGLGNQFLTNIRETEAIGHVVRCFENDNIIHVSGKVNPADDIEVINTELALADLDTCERAIHRVQKKAKGGDKDAKAELAVLEKCLPQLENAGMLRALDLSAEEKAAIRYLSFLTLKPTMYIANVNEDGFENNPYLDQVREIAAKEGSVVVPVCAAVEADIAELDDEERDEFMQELGLEEPGLNRVIRAGYKLLNLQTYFTAGVKEVRAWTIPVGATAPQAAGKIHTDFEKGFIRAQTISFEDFITYKGEQGAKEAGKMRAEGKDYIVKDGDVMNFLFNV
protein production: not failed

MGFLQPRLPDIDLAEWSQGSRSQKIRPMAQHWAEVGFGTPVLLHLFYVAKILLYVLVGWLIVLTTKGIDGFTDAAAWYAEPIVFEKVVLYTMLFEVIGLGCGFGPLNNRFFPPMGSILYWMRFGTIRLPPWPDRVPWTRGTKRKPVDVALYALLVMMLLSALFTDGAGPIPELGTTVGLLPAWQIVLILLLLGVLGLRDKVIFLAARGEVYATLTVTFLFGRLNGIDMIVAAKLVFLVIWIGAATSKLNRHFPFVISTMMSNNPLFRPRFIKRMFFKKFPGDLRPGLLSRIVAHVSTVIEMCVPVVLFVAHGGWPTVVAATIMVCFHLGILTAIPMGVPLEWNVFMIFGVLSLFVGHACLGLADVKNPVPLAILIAVVAGIVIAGNVFPRKISFLAAMRYYAGNWDTTLWCIKPSAEDKINRGIVAIASMPAAQLERFYGKDRAQIPMYLGYAFRAMNSHGRALFTLAHRAMAGHDEDDYVITDGERVCSTAVGWNFGDGHLHNEQLIAAMQQRCGFQPGEVRVVLLDAQPIHRQTQEYRLVDAATGEFERGYVRVADMVNRQPWDDDVPVHVLPG
protein production: failed

MGFSDAGIYLSDPNNLCQTELGFFHEPSLGFSDQSDPQNEFHITPPIYQELQDQDLEPKSQETNNCSRKEGATVKKEEEEEDDYCKTPTRSDQILSAMPRICPPAPRKPKRVPSRSLKVRNSYRSKRMIILNVSREIDCLFNPTSLCNKIKKARYI
protein production: failed
